From the domain aggregation screens of Martell et al. (2025)

Test: soluble fraction after stress (log2 fold change); higher = more stays soluble; pooled small domains, quantitative proteomics
Details: stress: 50 degC
In short: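 Each library was heated to 50°C as a stress step. The libraries, made up of small protein domains, were pooled and analysed at high throughput by quantitative proteomics. The reported value is the base-two logarithm of the fold change in each protein's soluble amount after stress, taken as a measure of aggregation propensity. The higher the value, the more protein stays in solution.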

In order of falling “soluble fraction (log2)” value:
1. HMYLSNPTYRGDSLVDALTQIGVDASFASRRDLARKNGIENYTGSAKQNLELLQLLREGRLR  0.374
2. HMGIERTNADTSFSVNVYGKELIITSNKPLVVNIYAIDGTLVRTEQVTIGVNTVSGLPSGIYVVGQQKVVI  0.297
3. HMHSEISGGSKDPFRFMPHLGVEDIHAETDRLSGSGVEFIREPDQESWGGWVATFKDPDGNILQLLQL  0.25
4. HMKKVRIPDDPEEAYRKALKTAMNIVGYKDNTEFTLREKLSERGYSGETVDAVAEFMKSKGYV  0.245
5. HMSGDYRALYSSLPPERASSVVDALNVAGIPYRIQDSTGAIMVPAEQIYDARIRLAGQGLGK  0.227
6. HMASATGVVTAASLNVRSGAGTNYSVVNTLAKGTKVTVLNTADGWYEIEATVNNEKITGYVSATYIAMD  0.222
7. HMAVELPLETTLDIVRKYARNQEVDRRAERVEAVSAEALQTLAPRGTKLASEIVEQAKTQVLEELA  0.177
8. HMGDLKALMPGKVTQVLVSGGQKVKVGEPVLLMESMKMEQTIVATKDGDISEILVSEGDTVEVGKIMIKI  0.163
9. HMKEETEMVTIPDVTGKPLTEAANLLREAKLDYLAESTGTSVTKQMPLPGAEVMVNTTVLLYTG  0.156
10. HMFKINNIIVSGLSEKSNLQTSEEIKNILFENIFFIKKDVLFKILEKNNLINSFEIKKIYPDTIEVKIKKT  0.153
11. HMAVKYTKDDFLYTEKPYEAIYDYKNDPFMHNLKIEQMAQQAAEVGVKTFKGLYKNYVKMREMQRGANV  0.14
12. HMPERLTYVHPDGAEPMRADKALAAFLSGRISRSRLLGSFSAGKVMAGGKPVEKKLLLRAGDALEVELPEP  0.139
13. HMTANPHKPEPLQIDTSDITPGVTVIHKAFGNGTVVSVDNNRILIDFDGIEKKFPFPGAFLYGFLQK  0.132
14. HMQEDKSKYLFQRGTAITVLRPAGIVRIGKERVDAVSNGSYIDRGVAVRVIEVEGTRVVVEPVPE  0.13
15. HMGDAATVFRDHYNINSAAQAQAALDRKEALWEQPNPWRDSDNREVFDWAAQTVKDRFDSGKYKPK  0.129
16. HMGTSFKITFYKDAFQVDDGPIRMLNDPANQKFVDEVSQGYAPKELIGQGGKAPEIDIIDKRSENAPT  0.128
17. HMVSDAELTSQATTAITAYPGTSVEVKEGQAHLSGTFATEADKQAAIDALKKIQDVKDVHDMATV  0.123
18. HMGADGIPGKNGENGETSYVHFAYATSADGKTGFSTTDTVGKTYMGQYADFEKADSEDPTKYRWGKFQGP  0.102
19. HMLLFNPGEVLKGFVLQSGTNNRVLLQIGDSRVIADTQTPLKAGEQLVLRVEETGPKTILQILG  0.101
20. HMNKVAQFYRELVSTLSERLRNGERDIDALVEQARVRISQSGELTQSEIENVIRAVRRDLEEFALSYEE  0.0926
21. HMTKRTEPSILQNFDTEIAELIAKNRGISIMDALRIFLASKTHEMLENDEMKLWYFSPLAVFDMWENE  0.088
22. HMGGEPVSARVPDTLHGARLDATAAALFPDFSRSRLAEWIKAGRLRRNDQPAKPRDKVAVDDHLLLIPEY  0.0696
23. HMQNLETVEEIKELALNYLDKYQPSKKSLQVYLFRKAIDAQSNSVEKSEILKKIETVLTDLEEQGILNDAL  0.0664
24. HMPEEGPSEDGNSFTAKFKLGSDVQGAMEQADAAAKAGLQDAGKGTGQITSRAQVGGYIYSTATA  0.0661
25. HMVSRAFEEETVKRAESGNQEAALFALELAIREIEHSYEKSKIIDYFVSKVRLFLDNGVSLERALGIH  0.0637
26. HMDISPAAKQRLALIQPLLEKNAEAITDRKLRNAVAKDIANNQNTTVRRVLRLYYRYLATGQVM  0.0392
27. HMENQMIIYIDENDENKRLDSYLSEITPDYSRSKIQNFIKNGNVTVNDSNKKPSYLLKENDKISFELPQQ  0.00635
28. HMTDSQLVEAENHVALRQAMAHLGPRERELIGLYYFEEQSQTQIAARFGVSQMQVSRWLTSAVGRIRGQMA  -0.00256
29. HMIKRITDEQHPVDVDRLLVVTFTNAAASEMRERIGDAIEAALEKDPYNQHLQRQLTLVHNAQITTIDS  -0.0115
30. HMQQLIEFSVTKGHPWINKKIMDLNLPENQLILTIQREGHVVSAEGKTIILENDRITISTDDR  -0.0156
31. HMDAVTYAKGSSGETVREIQQLLLDWGYYSGEVDGIFGSRTEDAVEYFQRKNGLTVDGKVGPATLEALGIS  -0.0183
32. HMAPDNDELEKAKKIVNAFIEAKAKGLGVVSLGTKMIDAPVVKRAQKIIDQTIVMGKLSLNWQDEFFN  -0.0351
33. HMEATEFYLEDLTGQMYNDVVNDEKYAGKIVFEKEEVQSDGEEAIGQILNQRPAGNMNVRIGTTVTLVVNA  -0.0405
34. HMVGPAHIGLAVAKDQLPHWERHLTANGVEIEGRMRWDHGGESIYFRDPDAHLLELVTPGIWAN  -0.0453
35. HMEWVVVPDVRRQLLPEAQRRVNKARLRLEVAGGWPAEPLLAMVVDQKPGPETRVPLNSIVVVVVRNLP  -0.0473
36. HMNLFKAPMPGLIRTIVVAEGQEVKKGDVILILEAMKMENALKSPADLVVKSIKVQQGQAVEKNQLLIEF  -0.0526
37. HMRATLTDETARVVQEPTSESISLTSLRKGEEFEIGKVIRKKKEVWVTVTTSSGVKGYISGDTHIF  -0.0573
38. HMDPPQEVWDLTRSYLDSMNRPVHGHKSPQETYLRQVKSHRLPATALWDYFMAQRFHAVHATSESAA  -0.0648
39. HMDAVSYTQFMQDAKAGRIKKVIVHQSGILDVTTTEGRRFNLTSPGDLWMVGDLVKDGVDVVGAP  -0.0657
40. HMEKTLAERVNDILAEIKMTKQELAMQLNISRSAVSQYLNGKYSSNPEAIEARLRDFVSSYDRG  -0.0754
41. HMGQVAKPPLKELGADPVTGKPMVLKDGRFGPYVTDGEYNASLRKDDDIETIGVERAAELLQIRREKGP  -0.081
42. HMTHPQVEAYLDDLARMLADIDPGERDDILASVREHLDAEIAAGHGSDAVVNATLLRLGPPEQVAAAARTN  -0.0824
43. HMLKKGDQVYIISGKDKGKLGVVSQIVSEERILVDGINLAKKHVKPNPNKNETGGVVEKEMPIHASNVMI  -0.0911
44. HMSAGKKSFTNSEFRRFLDALGEGLIVKHKKLGEGVVVEIRGDKAVIQFGDEQRLYELKTLYEYDLLR  -0.12
45. HMSDIATLVPGPTDAELAASALRGLDAALDADTPVRLSLGEPGGEVEVPRSVLAALARVLDSFAHGEGVTL  -0.136
46. HMVLVLPGEMIHVQVIDEGKEMGQGVGYLDDGTMVVVENGLRHIGRAIDVQVTKVLQTNAGRMIFGQPIL  -0.137
47. HMPLITDIKIQVKNTEKVSLFVDGKYSFSLTISQLAEHKILKTNQEISAKQVAEFKKLSNLTNLYIRIVG  -0.149
48. HMTNEQLSKAKSWVQIAVYAAEKLYGAGNGDQKLVYAEEILRKHGIRLDTATLKAMIDAQIKEMEN  -0.149
49. HMYDEAAIRKAVMTFVTDNRDERLDLAKISAVLTSKFGNINFDELGYKRFSSFIDSFPELRRNNTFVSLR  -0.312
50. HMTGINMSYEEYKAMADIIVPLIKAGHSPYHIVTNHPELNISEKTLYNYIENGIFREFGLLDINL  -0.313
51. HMEASSTAIQAMIRRLIDDENPRKPLSDAKLADLLKSSGIPVARRTVAKYREAMNISASHERVRI  -0.356
52. HMENLQLQQLVKGLPEKMQEIVILRFSQELTMREIADIVNLPMRTVQSQLRLALKILKKEMG  -0.447
53. HMGALSLDMLFDRFDALQEQSMGDKTEGGQELRGMIRTFIEQEKLDIRVTRTTTNAALLEMIEKEMQG  -0.451
54. HMGGRTITVGISENMTVKDIAQMLEEKGLIEDARLFVVQELLSAYHKEIKPGIYDLSTDMTAAQMLEIMS  -0.464
55. HMVGKGASIILDRVNLPQYLEKFNEDGFDTIESLKNLNEIDLKEMGVKKGHIRVILNYLHEEY  -0.501
56. HMSALAQDGDLVQLQGAGYKSHILRLKAGEVLQTHRGVIQHDAVIGQPWGARLQSHTGSPFYLFQPGLADL  -0.522
57. HMDKATMRWEQIEKFLETHPYIMNADVRALFNVSAATANRILATLTTEGKLVKYREGGHWAYKY  -0.544
58. HMTPTVEAAKEEVLRVLASAAPRGLTRTELEAEVSFRRTKLRDTLVELERIGRIDSVGRRGNATTYRLIG  -0.615
59. HMTVVLPGESLTVNIIQEGKELGQGVGYLDDGTMVVIEDGRRYIDQTIEVTVTRVLQTVAGRMIFAQLT  -0.646
60. HMVSSEGLASGIERMLVEFGLETDKGRRFAMWSLLYMLGSAPDLDVAFKDPRDREAARTFMDLLDQANA  -0.69
61. HMLDSGNPILPYKLSLLANVDIRTVRNAISAGELVAFKSEFDGEVYVENGSARRWLHGRRGFKPTLK  -0.84
62. HMKDYQGNILIQSEGDRIDKFLFKYFNSFSRTKIKNHIINGNILVNDKNTIPAYVLKINDKISYDLSTSVK  -1.04
63. HMRESRLFQILYQLLTKKKVTAANLAKQFEVSVRTIYRDIDALSSSGIPIYASQGKNGGIQLDEDF  -1.11
64. HMFHGEGVQANNIQAYIVLKMAAVNGAEDALDTADEVSEKMSREDLETATQVLGQIFRKYLMELQSA  -1.2
65. HMSDSISLTLNGDLRRFRAHATIADLVRDIGLDPVKVAVERNLEIVSRSTLEDVVLADGDRLEIVHFV  -1.33
66. HMKTALQENVRAYRLERKWTQQALAEALEVSVGAVSKWESGVSRPELETLMRLAELFGVSTDALLGF  -1.75
67. HMEQTIKKYVNVATLNFRSGPSTSYSIISTLSKGTKVEVISTTNNWSKIIYDGKIGYVSSEYLSKSI  -2.1
68. HMSESAGKALDILFYLARVEDEVSLARLSKETGMNKATALRYLAVLESWGVVEKRPSGWSLGLSLFELGSK  -2.13
69. HMAFDYETYQLTSREFSIIELVADGRSNREIAEALYLGEGTVRNYLSSILEKLELRDRTQLAVFFYQHL  -2.3
70. HMFEDYLRMKGLSIVSFSKQTGIPISTLRNLNKIRYDKWKIRYLEELSNVLNKTIQEIIEELKNMG  -2.32
71. HMGIAEGSSVFVRVLAAEDGGRYTVSFAGRRFSVLSRQALGIGSAFRADVKVEKGQVLLVPR  -2.37
72. HMHMHTADDFKQLAKHTSNGRLRTRYLALYHFKKGETRTQIAAYLGVARGSVNTWVSNYLAYGLEGLQS  -2.56
73. HMLPDVSITGHIFIRSGSRLNRIFVGESTYHVGDMLDGKWLIESINSDSLELRSGTQTTELPL  -2.58
74. HMLGWEDVIQFEEVKGYGQHIWRDGNHLYYVTEEGGIAPQRVVYELPNELFALLESGERTQLEILSKLQ  -3.11
75. HMVLNVMIEEEVHREIIAAISKLPKERRRVVELSMAGFSQEEIAEKMAISVNTVKTIKLRAYRVLRERLKG  -3.18
